B1: g28-D78-1_CLK09 (antibody, V domains shown)
VH: QVQLVQSGAEVKKPGASVKVSCKTSGYTFTAYYVHWVRQAPGQGLEWMGWINPTNGATNYAQIFQGRVTMTRDTSISTAYMELNRLRSDDTAVYYCARVGGLWAFDIWGQGTIVTVSS
VL: DIQMTQSPSSLSASVGDRVTITCQTSQHITRNLNWYQQKPGKAPKLLISDAYNLKIGVPSRFSGSGSGTDFTFTISSLQPEDVATYYCQQYEFFGGGTEVEIK
B2: g28-D78-19_CLK09 (antibody, V domains shown)
VH: B1 VH
VL: B1 VL with T25A
B3: g28-D78-10_CLK09 (antibody, V domains shown)
VH: QLQLVQSGADVKKPGASVKVSCKASGYTFTGYFIHWVRQAPGQGLEWMGWLNPIYGGVNYARNFQGRVTMTRDTSISTAYLELRRLKSDDTAVYYCARVAERMIFDVWGQGTMVTVSS
VL: DIQMTQSPSSLSASVGDRVTIACQASQDINNYVNWYQQKPGKAPKLLIYDASNLETGVPSRFSGSGSGTDFTFTISSLQPEDIATYYCQQYEFFGGGTKVEIK
B4: g28-D78-4_CLK09 (antibody, V domains shown)
VH: B3 VH with D10E, V37I, R84K
VL: B3 VL
B5: g28-D78-3_CLK09 (antibody, V domains shown)
VH: B3 VH with D10E, V37I, R84K
VL: B3 VL with E101R
B6: g28-D78-8_CLK09 (antibody, V domains shown)
VH: B3 VH with D10E, G26R, G66D
VL: B3 VL with N30S, E101R
B7: g28-D78-2_CLK09 (antibody, V domains shown)
VH: B3 VH with D10E, R84K
VL: B3 VL with G66R, E101R
B8: g28-D78-16_CLK09 (antibody, V domains shown)
VH: QVQLVQSGAEVKKPGASVKVSCKASGYTFTGYHIHWVRQAPGQGLEWMGWVNPYHGGTNYAQIFQGRVTMTRDTSISTAYMELSRLRSDDTAVYYCALWFGEKKTFDIWGQGTMVTVSS
VL: B3 VL with A22T, D28G, N30S, Y32F, V33L, Y36F, A51V
B9: g28-D78-18_CLK09 (antibody, V domains shown)
VH: B8 VH with G31D
VL: B3 VL with A22T, D28G, N30S, Y32F, V33L, Y36F, A51V
B10: g28-D78-20_CLK09 (antibody, V domains shown)
VH: B3 VH with D10E, G66D
VL: B3 VL
B11: g28-D78-12_CLK09 (antibody, V domains shown)
VH: B3 VH with A9T, D10E, R84K, T91A
VL: B3 VL
B12: g28-D78-11_CLK09 (antibody, V domains shown)
VH: B3 VH with G66D
VL: B3 VL with A25S, D28G
B13: g28-D78-15_CLK09 (antibody, V domains shown)
VH: B3 VH with K13T, G31S, G57A, G66D
VL: B3 VL
B14: g28-D78-6_CLK09 (antibody, V domains shown)
VH: B3 VH with G66D
VL: B3 VL with A22V, G66R
B15: g28-D78-5_CLK09 (antibody, V domains shown)
VH: B3 VH with D10E, G66D
VL: B3 VL with N30S
B16: g28-D78-13_CLK09 (antibody, V domains shown)
VH: B3 VH with D10E, R84K
VL: B3 VL
B17: g28-D78-14_CLK09 (antibody, V domains shown)
VH: QVQLVQSGAEVKKPGASVRVSCKASGYTFTGNYIHWVRQAPGQGLEWMGWLNPINGGTNHAQKFQGRVTMTRDTSISTAYMELSRLRSDDTTVYYCARVGGLWFGKGWTFDIWGQGTMVTVSS
VL: DIQMTQSPSSLSASVGDRVTITCQASQDISILNWYQQKPGKAPKLLIYGASNLETGVPSRFSGSGSGTDFTLTISSLQPEDIATYYCQQYEFFGGGTKVAIK
B18: g28-D78-17_CLK09 (antibody, V domains shown)
VH: B17 VH with F104L
VL: B17 VL with L72F, A100E
B19: g28-D78-7_CLK09 (antibody, V domains shown)
VH: B17 VH with S77N, R87K, F104S
VL: B17 VL with L72F, A100E
B20: g28-D78-21_CLK09 (antibody, V domains shown)
VH: QLQESGAEVKKPGASVRVSCKASGYTFTGNYIHWVRQAPGQGLEWMGWVNPINGGTNHAQKFQGRVTMTRDTSISTAYMELSRLRSDDTTVYYCARVGGLWFGKGWTFDIWGQGTMVTVSS
VL: B17 VL with L72F, A100R

Residue numbers refer to the chain shown, from its start.

Among the data in paper PMC11488661 (Science immunology, 2024) are Kd values, retold here.

The assay has as its target eOD-GT8 (monomeric ligand) (Human immunodeficiency virus 1, …).
As for B1, binding was characterised by a dissociation constant (Kd) of 7.1 nM. To B2 belongs 8.8 nM. Next, B3: 11 nM; B4: 6.5 nM; B5: 7.1 nM. To B6 belongs 8 nM; to B7, 15 nM; to B8, 130 nM. As for B9, binding was characterised by a dissociation constant (Kd) of 82 nM. Consider B10, for which binding was put at a Kd of 6.8 nM. For B11, the equilibrium dissociation constant (Kd) (as a rule, the free concentration of one partner at which half of the binding sites on the other are occupied at equilibrium, for simple one-to-one binding) is 11 nM.

Consider B12, for which binding was put at a Kd of 9 nM.

Molecule B13 yielded a Kd of 160 nM.

Turning to B14, the affinity, expressed as Kd, was 7.6 nM. For the molecule B15, the Kd worked out at 6 nM.

B16 came in with a dissociation constant Kd of 11 nM.

In turn, B17 displayed a Kd of 0.29 nM. As to B18, the Kd is 0.25 nM. B19 came in with a Kd of 0.2 nM.

In turn, B20 registered a Kd of 0.87 nM.
